Assay results from patent publication US20160091504A1 (UNIVERSITE LAVAL, published 2016).
Blank lines part the entries; values can stand above or below the molecule they belong to.

Columns and labels:
[1] = target: p65 subunit of NF-κB expressed from pCMV-p65 (Homo sapiens (Human)) (UniProt Q04206); assay: cell-based or functional assay
[2] = target: T1, p65 subunit of NF-κB expressed from pCMV-p65 (Homo sapiens (Human), UniProt Q04206 1-551, limits assumed); assay: co-immunoprecipitation from transfected BV-2 cells
T1 construct: pCMV-p65 was a gift; also called NF-κB p65; REL-A

[3] = target: T1, p65 subunit of NF-κB expressed from …; assay: cell-based or functional assay

T1 sequence (Q04206 whole entry S180P): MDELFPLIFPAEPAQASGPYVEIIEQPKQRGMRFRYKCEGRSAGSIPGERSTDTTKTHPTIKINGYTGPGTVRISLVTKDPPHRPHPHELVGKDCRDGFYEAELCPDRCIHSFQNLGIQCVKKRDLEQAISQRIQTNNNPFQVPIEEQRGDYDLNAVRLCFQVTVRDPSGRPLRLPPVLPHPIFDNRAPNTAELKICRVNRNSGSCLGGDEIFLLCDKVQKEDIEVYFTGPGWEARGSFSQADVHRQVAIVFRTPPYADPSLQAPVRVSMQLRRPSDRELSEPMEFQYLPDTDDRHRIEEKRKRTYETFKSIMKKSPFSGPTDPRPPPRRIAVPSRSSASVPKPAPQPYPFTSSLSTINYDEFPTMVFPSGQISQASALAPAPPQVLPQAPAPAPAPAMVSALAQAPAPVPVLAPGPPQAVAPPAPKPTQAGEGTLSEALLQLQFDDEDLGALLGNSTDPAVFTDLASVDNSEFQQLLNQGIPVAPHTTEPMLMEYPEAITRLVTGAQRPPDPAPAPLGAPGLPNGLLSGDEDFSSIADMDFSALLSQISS
Sequence of p65 subunit of NF-κB expressed from pCMV-p65 (Homo sapiens (Human)) (Q04206 whole entry S180P): as above

decrease in NF-κB activation (4κB^wt-luc) with TDP-43 siRNA versus scrambled siRNA, 5 ng pCMV-p65 [1]: 3 fold
decrease in NF-κB activation (4κB^wt-luc) with TDP-43 siRNA versus scrambled siRNA, 50 ng pCMV-p65 [1]: 2 fold
decrease in NF-κB activation (4κB^wt-luc) with TDP-43 siRNA versus scrambled siRNA, 10 and 20 ng pCMV-p65 [1]: 2.5 fold
Molecule: endogenous mouse TDP-43 (from UniProt Q921F2 1-414)

binding result [2]: no binding
level of NF-κB activation detected by the 4κB^wt-luc reporter assay [3]: 6 fold lower
B1: TDP-43^ΔNR1-30 (31-81 and 98-176 AAs), N-terminal and RRM-1 deletion mutant with the NLS signal attached (other)
chain: MSEYIRVTEDENDEPIEIPSEDDGTVLLSTKRKMDETDASSAVKVKLPNSKQSQDEPLRSRKVFVGRCTEDMTEDELREFFSQYGDVMDVFIPKPFRAFAFVTFADDQIAQSLCGEDLIIKGISVHISNAEPKHNSNRQLERSGRFGGNPGGFGNQGGFGNSRGGGAGLGNNQGSNMGGGMNFGAFSINPAMMAAAQAALQSSWGMMGMLASQQNQSGPSGNNQNQGNMQREPNQAFGSGNNSYSGSNSGAAIGWGSASNAGSGSGFNGGFGSSMDSKSSGWGM
notes: The printed ranges in brackets are read as the deleted residues (31-81 and 98-176); not shown: HA (hemagglutinin) tag at the extreme C-terminus

NF-κB gene activation (4κB^wt-luc reporter), compared to full length TDP-43^wt [3]: 2 fold
B2: TDP-43^ΔN (1-105AAs), HA-tagged deletion mutant (other, not shown: small tags and cut ends)
chain: LIVLGLPWKTTEQDLKEYFSTFGEVLMVQVKKDLKTGHSKGFGFVRFTEYETQVKVMSQRHMIDGRWCDCKLPNSKQSQDEPLRSRKVFVGRCTEDMTEDELREFFSQYGDVMDVFIPKPFRAFAFVTFADDQIAQSLCGEDLIIKGISVHISNAEPKHNSNRQLERSGRFGGNPGGFGNQGGFGNSRGGGAGLGNNQGSNMGGGMNFGAFSINPAMMAAAQAALQSSWGMMGMLASQQNQSGPSGNNQNQGNMQREPNQAFGSGNNSYSGSNSGAAIGWGSASNAGSGSGFNGGFGSSMDSKSSGWGM
